Literature values in publication PMC4136965 (Journal of nuclear medicine : official publication, Society …, 2009).
Read-outs that look alike come from different tables or passages of the source. Non-standard residues stand in square brackets, D forms with d. No end group written: not given here.

Tested on: B16F10 xenografted melanoma
Conditions: mouse, in vivo

^18F-FB-Ac-Nle-Asp-His-D-Phe-Arg-Trp-Gly-Lys-NH2 ([dF]RWGK-NH2; not fully specified (N-terminus); also: 18F-FB label, position not given here) [^18F-FB-NAPamide]
Tumor uptake (1 h): 1.19 ± 0.11 %ID/g | Tumor uptake (4 h): 0.25 ± 0.05 %ID/g
